Measured values published in ChEMBL document CHEMBL1773060, “Two-step synthesis of novel, bioactive derivatives of the ubiquitous cofactor nicotinamide adenine dinucleotide (NAD)” (J Med Chem, 2011).

Substrate: NC(=O)c1ccc[n+]([C@@H]2O[C@H](COP(=O)([O-])OP(=O)(O)OC[C@H]3O[C@@H](n4cnc5c(N)ncnc54)[C@H](O)[C@@H]3O)[C@@H](O)[C@H]2O)c1
Assay: Activity at human SIRT1 assessed as ADP-ribosyltransferase activity

B1: NAD-dependent protein deacetylase sirtuin-1 (Homo sapiens), Q96EB6 (protein)
chain: MADEAALALQPGGSPSAAGADREAASSPAGEPLRKRPRRDGPGLERSPGEPGGAAPEREVPAAARGCPGAAAAALWREAEAEAAAAGGEQEAQATAAAGEGDNGPGLQGPSREPPLADNLYDEDDDDEGEEEEEAAAAAIGYRDNLLFGDEIITNGFHSCESDEEDRASHASSSDWTPRPRIGPYTFVQQHLMIGTDPRTILKDLLPETIPPPELDDMTLWQIVINILSEPPKRKKRKDINTIEDAVKLLQECKKIIVLTGAGVSVSCGIPDFRSRDGIYARLAVDFPDLPDPQAMFDIEYFRKDPRPFFKFAKEIYPGQFQPSLCHKFIALSDKEGKLLRNYTQNIDTLEQVAGIQRIIQCHGSFATASCLICKYKVDCEAVRGDIFNQVVPRCPRCPADEPLAIMKPEIVFFGENLPEQFHRAMKYDKDEVDLLIVIGSSLKVRPVALIPSSIPHEVPQILINREPLPHLHFDVELLGDCDVIINELCHRLGGEYAKLCCNPVKLSEITEKPPRTQKELAYLSELPPTPLHVSEDSSSPERTSPPDSSVIVTLLDQAAKSNDDLDVSESKGCMEEKPQEVQTSRNVESIAEQMENPDLKNVGSSTGEKNERTSVAGTVRKCWPNRVAKEQISRRLDGNQYLFLPPNRYIFHGAEVYSDSEDDVLSSSSCGSNSDSGTCQSPSLEEPMEDESEIEEFYNGLEDEPDVPERAGGAGFGTDGDDQEAINEAISVKQEVTDMNYPSNKS
Work on B1 yielded a Km of 80 µM.
